Reference: the supplement of paper PMC10567573

B1: ZNF193 (parent)
chain: QKRYHCKECGKVFSQSAGLIQHQR

Variants of: B1
Assay: protein stability index of a GFP-peptide fusion (GPS, HEK-293T) (PSI 1-6); higher = more stable
Details: c terminus: a fixed tail appended
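Also: lentivirally expressed fusions sorted by FACS into six bins by GFP to DsRed ratio, PSI derived from sequencing read proportions per bin multiplied by bin number.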

Variant	protein stability index
QKRYHCKEQGKVFSQSAGLIQHQR [C9Q]	3.19
QKRYHCKEHGKVFSQSAGLIQHQR [C9H]	3.13
QKRYHCKEFGKVFSQSAGLIQHQR [C9F]	2.17
QKRYHCKEMGKVFSQSAGLIQHQR [C9M]	2.63
HKRYHCKECGKVFSQSAGLIQHQR [Q1H]	2.73
SKRYHCKECGKVFSQSAGLIQHQR [Q1S]	2.88
GKRYHCKECGKVFSQSAGLIQHQR [Q1G]	2.81
MKRYHCKECGKVFSQSAGLIQHQR [Q1M]	2.45
LKRYHCKECGKVFSQSAGLIQHQR [Q1L]	2.62
WKRYHCKECGKVFSQSAGLIQHQR [Q1W]	1.9
NKRYHCKECGKVFSQSAGLIQHQR [Q1N]	2.32
RKRYHCKECGKVFSQSAGLIQHQR [Q1R]	3.19
KKRYHCKECGKVFSQSAGLIQHQR [Q1K]	3.1
VKRYHCKECGKVFSQSAGLIQHQR [Q1V]	3.05
IKRYHCKECGKVFSQSAGLIQHQR [Q1I]	3.03
YKRYHCKECGKVFSQSAGLIQHQR [Q1Y]	2.2
PKRYHCKECGKVFSQSAGLIQHQR [Q1P]	3.16
TKRYHCKECGKVFSQSAGLIQHQR [Q1T]	2.98
QKRYHCKRCGKVFSQSAGLIQHQR [E8R]	3.12
QKRYHCKDCGKVFSQSAGLIQHQR [E8D]	2.93
QKRYHCKTCGKVFSQSAGLIQHQR [E8T]	2.94
QKRYHCKCCGKVFSQSAGLIQHQR [E8C]	4.26
QKRYHCKNCGKVFSQSAGLIQHQR [E8N]	2.99
QKRYHCKFCGKVFSQSAGLIQHQR [E8F]	2.56

Variant	protein stability index
QKRYHCKLCGKVFSQSAGLIQHQR [E8L]	2.75
QKRYHCKWCGKVFSQSAGLIQHQR [E8W]	2.71
QKRYHCKPCGKVFSQSAGLIQHQR [E8P]	2
QKRYHCKHCGKVFSQSAGLIQHQR [E8H]	3.81
QKRYHCKICGKVFSQSAGLIQHQR [E8I]	2.98
QKRYHCKVCGKVFSQSAGLIQHQR [E8V]	2.68
QKRYHCKACGKVFSQSAGLIQHQR [E8A]	2.75
QKRYHCKSCGKVFSQSAGLIQHQR [E8S]	2.59
QKRYHCKYCGKVFSQSAGLIQHQR [E8Y]	2.67
QKRYHCKKCGKVFSQSAGLIQHQR [E8K]	3.5
QKRYHCKMCGKVFSQSAGLIQHQR [E8M]	2.6
QKRYHCKGCGKVFSQSAGLIQHQR [E8G]	2.66
QKRYHCKQCGKVFSQSAGLIQHQR [E8Q]	2.91
QKRYHCEECGKVFSQSAGLIQHQR [K7E]	3.52
QKRYHCHECGKVFSQSAGLIQHQR [K7H]	2.94
QKRYHCDECGKVFSQSAGLIQHQR [K7D]	3.15
QKRYHCTECGKVFSQSAGLIQHQR [K7T]	2.74
QKRYHCIECGKVFSQSAGLIQHQR [K7I]	2.69
QKRYHCWECGKVFSQSAGLIQHQR [K7W]	2.49
QKRYHCFECGKVFSQSAGLIQHQR [K7F]	2.53
QKRYHCYECGKVFSQSAGLIQHQR [K7Y]	3.1
QKRYHCQECGKVFSQSAGLIQHQR [K7Q]	3.15
QKRYHCAECGKVFSQSAGLIQHQR [K7A]	2.95
QKRYHCMECGKVFSQSAGLIQHQR [K7M]	2.6

Variant	protein stability index
QKRYHCLECGKVFSQSAGLIQHQR [K7L]	2.95
QKRYHCSECGKVFSQSAGLIQHQR [K7S]	3.35
QKRYHCNECGKVFSQSAGLIQHQR [K7N]	3.23
QKRYHCCECGKVFSQSAGLIQHQR [K7C]	2.65
QKRYHCRECGKVFSQSAGLIQHQR [K7R]	2.66
QKRYHCGECGKVFSQSAGLIQHQR [K7G]	2.92
QKRYHCPECGKVFSQSAGLIQHQR [K7P]	3.33
QKRYHCVECGKVFSQSAGLIQHQR [K7V]	2.99
QKRSHCKECGKVFSQSAGLIQHQR [Y4S]	2.11
QKRCHCKECGKVFSQSAGLIQHQR [Y4C]	2.41
QKRNHCKECGKVFSQSAGLIQHQR [Y4N]	2.39
QKRTHCKECGKVFSQSAGLIQHQR [Y4T]	1.97
QKRVHCKECGKVFSQSAGLIQHQR [Y4V]	2.25
QKRDHCKECGKVFSQSAGLIQHQR [Y4D]	2.48
QKRIHCKECGKVFSQSAGLIQHQR [Y4I]	2.4
QKRMHCKECGKVFSQSAGLIQHQR [Y4M]	2.17
QKRKHCKECGKVFSQSAGLIQHQR [Y4K]	2.65
QKRWHCKECGKVFSQSAGLIQHQR [Y4W]	2.86
QKRGHCKECGKVFSQSAGLIQHQR [Y4G]	2.14
QKREHCKECGKVFSQSAGLIQHQR [Y4E]	2.15
QKRQHCKECGKVFSQSAGLIQHQR [Y4Q]	2.42
QKRLHCKECGKVFSQSAGLIQHQR [Y4L]	2.4
QKRFHCKECGKVFSQSAGLIQHQR [Y4F]	2.72
QKRRHCKECGKVFSQSAGLIQHQR [Y4R]	1.98

Variant	protein stability index
QKRHHCKECGKVFSQSAGLIQHQR [Y4H]	2.47
QKRAHCKECGKVFSQSAGLIQHQR [Y4A]	1.99
QKRPHCKECGKVFSQSAGLIQHQR [Y4P]	2.47
QKRYPCKECGKVFSQSAGLIQHQR [H5P]	3.1
QKRYCCKECGKVFSQSAGLIQHQR [H5C]	3.34
QKRYYCKECGKVFSQSAGLIQHQR [H5Y]	3.29
QKRYQCKECGKVFSQSAGLIQHQR [H5Q]	3.88
QKRYACKECGKVFSQSAGLIQHQR [H5A]	3.25
QKRYSCKECGKVFSQSAGLIQHQR [H5S]	2.94
QKRYGCKECGKVFSQSAGLIQHQR [H5G]	2.23
QKRYVCKECGKVFSQSAGLIQHQR [H5V]	3.95
QKRYKCKECGKVFSQSAGLIQHQR [H5K]	3.92
QKRYMCKECGKVFSQSAGLIQHQR [H5M]	4.01
QKRYFCKECGKVFSQSAGLIQHQR [H5F]	3.01
QKRYRCKECGKVFSQSAGLIQHQR [H5R]	3.9
QKRYTCKECGKVFSQSAGLIQHQR [H5T]	3.23
QKRYLCKECGKVFSQSAGLIQHQR [H5L]	3.75
QKRYECKECGKVFSQSAGLIQHQR [H5E]	3.62
QKRYWCKECGKVFSQSAGLIQHQR [H5W]	2.98
QKRYDCKECGKVFSQSAGLIQHQR [H5D]	2.37
QKRYICKECGKVFSQSAGLIQHQR [H5I]	3.91
QKRYNCKECGKVFSQSAGLIQHQR [H5N]	2.77
